In patent US20110117017A1, “PEPTIDES WITH PROPERTIES OF AN […] FOR THE ALPHA 1A […] RECEPTOR AND USES THEREOF” (priority 2006, published 2011) one finds IC50 and Kd data, which are given here for two substances.

pIC50, pKd: −log10 of the molar value. Like-named read-outs stand apart in the source and are kept apart here.

The target of experiment [1] is alpha1a adrenergic receptor (expressed in Pichia pastoris, membranes).
Experiment [2] has the same target. This is another data set of the same source.
Experiment [3] has as its target alpha1d adrenergic receptor (expressed in Pichia pastoris, membranes).
The target in experiment [4] is alpha2a adrenergic receptor (expressed in Pichia pastoris, membranes).
alpha2a adrenergic receptor (expressed in Pichia pastoris, membranes), sequence (P08913 whole entry): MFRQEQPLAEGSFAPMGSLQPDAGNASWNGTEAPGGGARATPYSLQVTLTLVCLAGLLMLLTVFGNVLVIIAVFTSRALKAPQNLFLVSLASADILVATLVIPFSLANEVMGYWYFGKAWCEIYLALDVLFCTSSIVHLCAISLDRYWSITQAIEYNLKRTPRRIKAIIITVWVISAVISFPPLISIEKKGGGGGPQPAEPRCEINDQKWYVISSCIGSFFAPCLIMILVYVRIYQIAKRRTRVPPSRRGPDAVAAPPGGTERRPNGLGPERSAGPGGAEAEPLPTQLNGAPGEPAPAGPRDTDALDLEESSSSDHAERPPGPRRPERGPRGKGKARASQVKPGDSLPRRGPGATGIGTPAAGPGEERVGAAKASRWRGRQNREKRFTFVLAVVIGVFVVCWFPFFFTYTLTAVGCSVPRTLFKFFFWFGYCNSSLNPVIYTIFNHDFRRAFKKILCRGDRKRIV
In experiment [5] the target is beta1 adrenergic receptor (expressed in Pichia pastoris, membranes).
beta1 adrenergic receptor (expressed in Pichia pastoris, membranes), sequence (P08588 whole entry): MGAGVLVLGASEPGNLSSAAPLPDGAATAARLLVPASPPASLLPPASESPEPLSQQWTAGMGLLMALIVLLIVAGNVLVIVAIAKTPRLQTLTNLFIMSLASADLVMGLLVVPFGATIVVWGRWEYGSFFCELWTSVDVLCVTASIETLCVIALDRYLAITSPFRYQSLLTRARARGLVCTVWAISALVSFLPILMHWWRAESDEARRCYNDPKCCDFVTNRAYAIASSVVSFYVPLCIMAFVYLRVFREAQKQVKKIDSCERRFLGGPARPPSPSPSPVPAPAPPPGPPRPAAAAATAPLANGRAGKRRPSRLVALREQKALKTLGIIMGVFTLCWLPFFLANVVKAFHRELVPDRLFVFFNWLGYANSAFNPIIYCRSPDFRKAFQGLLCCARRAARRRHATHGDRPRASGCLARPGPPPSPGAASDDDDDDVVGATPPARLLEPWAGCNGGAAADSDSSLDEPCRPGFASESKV
In experiment [6] the target is alpha1a adrenergic receptor (expressed in Pichia pastoris, membranes). The source holds these as a separate data set.

alpha1a adrenergic receptor (expressed in Pichia pastoris, membranes), sequence (P35348 whole entry): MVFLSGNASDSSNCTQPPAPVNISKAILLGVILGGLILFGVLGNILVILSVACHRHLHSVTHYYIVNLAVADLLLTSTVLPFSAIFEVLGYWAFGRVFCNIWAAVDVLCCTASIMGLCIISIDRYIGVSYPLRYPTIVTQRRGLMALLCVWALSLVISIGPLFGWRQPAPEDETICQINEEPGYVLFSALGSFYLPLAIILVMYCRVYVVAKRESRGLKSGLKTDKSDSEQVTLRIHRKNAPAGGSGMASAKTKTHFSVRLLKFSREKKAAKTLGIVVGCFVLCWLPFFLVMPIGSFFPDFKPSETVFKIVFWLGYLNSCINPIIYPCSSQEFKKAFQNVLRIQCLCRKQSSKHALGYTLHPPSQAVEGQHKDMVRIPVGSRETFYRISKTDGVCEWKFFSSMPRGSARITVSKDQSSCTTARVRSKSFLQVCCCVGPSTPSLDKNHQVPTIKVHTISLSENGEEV
alpha1d adrenergic receptor (expressed in Pichia pastoris, membranes), sequence (P25100 whole entry): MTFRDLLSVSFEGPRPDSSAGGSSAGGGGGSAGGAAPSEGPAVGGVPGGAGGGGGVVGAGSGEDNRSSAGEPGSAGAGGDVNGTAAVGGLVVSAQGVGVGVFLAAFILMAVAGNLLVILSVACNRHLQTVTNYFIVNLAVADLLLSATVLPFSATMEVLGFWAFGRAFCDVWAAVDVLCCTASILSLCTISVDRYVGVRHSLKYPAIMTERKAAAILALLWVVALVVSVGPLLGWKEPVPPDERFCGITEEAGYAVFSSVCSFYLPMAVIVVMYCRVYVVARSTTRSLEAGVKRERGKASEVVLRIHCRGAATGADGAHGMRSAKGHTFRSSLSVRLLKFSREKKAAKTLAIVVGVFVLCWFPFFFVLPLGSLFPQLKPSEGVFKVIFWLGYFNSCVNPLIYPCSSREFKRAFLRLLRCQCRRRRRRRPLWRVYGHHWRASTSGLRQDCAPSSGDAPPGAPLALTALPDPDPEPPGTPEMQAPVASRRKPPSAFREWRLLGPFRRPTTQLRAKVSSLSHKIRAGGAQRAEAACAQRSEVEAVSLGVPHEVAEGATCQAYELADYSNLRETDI

As a reminder, the pIC50 is the negative decadic logarithm of the IC50, by convention in mol/L. For AdTx1 peptide, the pIC50 in experiment [1] was 9.30; in experiment [2] it was 8.74; in experiment [3] it was 5.00; in experiment [4], less than 4.30; in experiment [5], less than 4.30.

What is called pKd is the Kd on a negative log10 scale, so that one unit is a factor of ten. Low values mean a large Kd, high ones a small Kd. In turn, radiolabeled AdTx1 peptide (125I-AdTx1) gave a pKd in experiment [6] of 9.10.
